Read-outs that look alike come from different tables or passages of the source.
What was measured:
[1] = molecular target: T1, Human PD-1 protein with histidine and avi tags (ACRO Biosystems, PD1-H82E4) (human, UniProt Q15116 25-167); assay: BLI; ratio of kdis, apparently PR005090 over the variant
T1 construct: Captured on streptavidin (SA) sensors in the BLI assay; not shown: histidine and avi tags
Protocol: (§1) Human PD-1 proteins with histidine and avi tags were purchased from the manufacturer ACRO Biosystems (Cat#: PD1-H82E4), and the assay buffer was 1× kinetics buffer (diluted from 10× kinetics buffer (ForteBio, Cat#: 18-1105)) for kinetic assay and dilution of antigens and antibodies. The binding kinetics between the antigen and the antibody was analyzed by the biolayer interferometry (BLI) technique using an Octet molecular interaction analyzer (ForteBio, model: Octet Red96e).
(§2) When the binding kinetics between the antigen and the antibody was determined, the rotation speed of the sensor was set at 1000 rpm/min. The eight SA sensors placed in a column were first equilibrated in an assay buffer for 10 min and then used to capture PD-1 at a capture height of 0.5 nm. Thereafter, the SA sensors were equilibrated in the assay buffer for 100 s, and then were associated with each antibody diluted to a single concentration and with a row of blank buffer wells for 180 s, followed by dissociation for 600 s. A new column of SA sensors were used in each cycle.
(§3) When data analysis was performed using Octet Data Analysis software (Fortebio, version 11.0), the reference signals were subtracted by a single reference mode (reference well), the data were fitted by a “1:1 Local fitting” method, and the kinetic parameters of the binding of the antigen to the antibody were calculated to obtain kon (1/Ms) values, kdis (1/s) values and KD (M) values.

[2] = molecular target: T2, Human PD-1 expressed on CHO-K1 cells (CHO-K1/hPD-1) (human, UniProt Q15116 25-288); assay: FACS, CHO-K1/hPD-1 cells
T2 construct: whole, on cells; also called CHO-K1 cells overexpressing human PD-1
Protocol: In order to investigate the in vitro binding activity of the PD-1 antigen-binding proteins to human/cynomolgus monkey PD-1, the binding assay at the cellular level was performed using a CHO-K1 cell strain overexpressing human or cynomolgus monkey PD-1 (CHO-K1/hPD-1 or CHO-K1/cyno PD-1, from GenScript). Briefly, the CHO-K1-hPD-1 cells were digested and resuspended in an F-12K complete medium, and the cell density was adjusted to 1×10⁶ cells/mL. The cells were seeded in a 96-well V-bottom plate (Corning, Cat#3894) at 100 μL/well, followed by the addition of the test antigen-binding proteins with concentrations 2-fold of final concentrations obtained by 5-fold gradient dilution were each added at 100 μL/well. The mixtures were well mixed. The maximum final concentration of the antigen-binding proteins was 100 nM or 300 nM. A total of 8-11 concentrations were set. hIgG was used as a control. The cells were incubated at 4° C. for 1 h away from light. Thereafter, the cells in each well were rinsed twice with 100 μL of pre-cooled PBS, and centrifuged at 500 g at 4° C. for 5 min, and then the supernatant was discarded. Then 100 μL of a fluorescent secondary antibody (goat anti-human IgG (H+L) secondary antibody, Alexa Fluor® 488 conjugate, Invitrogen, Cat #A11013, 1:1000) was added to each well. The plate was incubated away from light at 4° C. for 30 min. The cells in each well were rinsed twice with 200 μL of pre-cooled PBS, and centrifuged at 500 g at 4° C. for 5 min, and then the supernatant was discarded. Finally, the cells in each well were resuspended in 200 μL of pre-cooled PBS, and the fluorescence signal values were read using a BD FACS CANTOII.

[3] = molecular target: T1, Human PD-1 protein with histidine and …; assay: BLI (Octet Red96e), PD-1 captured on SA sensor, 1:1 local fit
Protocol: as §1, §2, §3

[4] = molecular target: T2, Human PD-1 expressed on CHO-K1 cells …; assay: FACS, CHO-K1/hPD-1 cells; remark: listed apart in the source
[5] = molecular target: T2, Human PD-1 expressed on CHO-K1 cells …; assay: FACS, CHO-K1/hPD-1 cells; remark: listed apart in the source

T1 sequence (Q15116 25-167 limits assumed): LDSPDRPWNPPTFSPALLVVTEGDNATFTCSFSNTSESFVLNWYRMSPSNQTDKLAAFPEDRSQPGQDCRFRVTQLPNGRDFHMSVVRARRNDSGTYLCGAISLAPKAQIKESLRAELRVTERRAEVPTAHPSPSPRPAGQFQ
T2 sequence (Q15116 25-288): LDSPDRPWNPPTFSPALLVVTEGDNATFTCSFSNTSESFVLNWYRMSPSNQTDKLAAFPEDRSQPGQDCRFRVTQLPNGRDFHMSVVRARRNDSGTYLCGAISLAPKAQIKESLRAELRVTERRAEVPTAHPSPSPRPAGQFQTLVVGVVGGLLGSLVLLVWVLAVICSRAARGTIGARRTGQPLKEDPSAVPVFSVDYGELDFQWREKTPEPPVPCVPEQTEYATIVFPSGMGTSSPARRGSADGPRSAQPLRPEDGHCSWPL

Binder	Kd [3]	koff [3]	kon [3]	EC50 [4]	Maximum (MFI) [4]	EC50 [5]	Maximum (MFI) [5]	other results
PR005103 (VHH, Monovalent single-domain (VH) variant of PR002481 with Flag-6His tag) VHH: EVQLVETGGGLIQPGGSLRLSCAASGFNVSSHYMSWVRQAPGKGREWVSIIDRGGGTYYADSVKGRFTISRDNSKNRLYLQMNSLRAEDTAMYYCARATAVAEKNGYNYPFNYWGQGTLVTVSS	79.6 nM	0.000252 s⁻¹	3160 M⁻¹ s⁻¹					kdis ratio [1]: 4.54; EC50 [2]: 14.5 nM; MFI Maximum [2]: 6890
PR005104 (VHH, Monovalent single-domain (VH) variant of PR002481 with Flag-6His tag) VHH: EVQLVETGGGLIQPGGSLRLSCAASGFNVSSHYMSWVRQAPGKGREWVSIIDISGSTYYADSVKGRFTISRDNSKNRLYLQMNSLRAEDTAMYYCARATAVAEKNGYNYPFNYWGQGTLVTVSS	3.08 nM	0.000243 s⁻¹	79000 M⁻¹ s⁻¹					kdis ratio [1]: 4.7; EC50 [2]: 11.8 nM; MFI Maximum [2]: 7300
PR005569 (antibody, human IgG1, V domains shown, no light chain; also called anti-PD1 PR002481R2M4_E2 HCAb hIgG1) VH: EVQLVETGGGLIQPGGSLRLSCAASGFNVSFYYMSWVRQAPGKGREWVSIIDKSGSTYYAASVKGRFTISRDNSKNRLYLQMNSLRAEDTAMYYCARATEVREKNGYNYPFNYWGQGTLVTVSS	0.482 nM	5.75e-06 s⁻¹	11900 M⁻¹ s⁻¹	3.4 nM	3.14e+06			
PR005570 (antibody, human IgG1, V domains shown, no light chain; also called anti-PD1 PR002481R2M1_H3 HCAb hIgG1) VH: EVQLVETGGGLIQPGGSLRLSCAASGFNVSFYYMSWVRQAPGKGREWVSIIDKGGSTYYGDSVKGRFTISRDNSKNRLYLQMNSLRAEDTAMYYCARATEVREKNGYNYPFNYWGQGTLVTVSS						6.54 nM	3.18e+06	
PR005571 (antibody, human IgG1, V domains shown, no light chain; also called anti-PD1 PR002481Com_31 HCAb hIgG1) VH: EVQLVETGGGLIQPGGSLRLSCAASGFNVSFYYMSWVRQAPGKGREWVSIIDKGGSTYYADSVKGRFTISRDNSKNRLYLQMNSLRAEDTAMYYCARATEVREKQGYNYPFNYWGQGTLVTVSS						6.55 nM	2.95e+06	
PR005572 (antibody, human IgG1, V domains shown, no light chain; also called anti-PD1 PR002481Com_32 HCAb hIgG1) VH: EVQLVETGGGLIQPGGSLRLSCAASGFNVAFYYMSWVRQAPGKGREWVSIIDKGGSTYYADSVKGRFTISRDNSKNRLYLQMNSLRAEDTAMYYCARATEVREKQGYNYPFNYWGQGTLVTVSS	3.32 nM	4.28e-05 s⁻¹	12900 M⁻¹ s⁻¹	4.68 nM	3.04e+06			
PR005573 (antibody, human IgG1, V domains shown, no light chain; also called anti-PD1 PR002481R2M3_D1 HCAb hIgG1) VH: EVQLVETGGGLIQPGGSLRLSCAASGFNVSSHYMSWVRQAPGKGREWVSIIDKAGSGYYAASVKGRFTISRDNSKNRLYLQMNSLRAEDTAMYYCARATEVREKNGYNYPFNYWGQGTLVTVSS						4.73 nM	3.08e+06	
PR005574 (antibody, human IgG1, V domains shown, no light chain; also called anti-PD1 PR002481R2M1_F1 HCAb hIgG1) VH: EVQLVETGGGLIQPGGSLRLSCAASGFNVSSHYMSWVRQAPGKGREWVSIIDKAGSGYYADSVKGRFTISRDNSKNRLYLQMNSLRAEDTAMYYCARATEVREKQGYNYPFNYWGQGTLVTVSS						3.91 nM	2.82e+06	
PR005575 (antibody, human IgG1, V domains shown, no light chain; also called anti-PD1 PR002481Com_24 HCAb hIgG1) VH: EVQLVETGGGLIQPGGSLRLSCAASGFNVASHYMSWVRQAPGKGREWVSIIDKAGSGYYADSVKGRFTISRDNSKNRLYLQMNSLRAEDTAMYYCARATEVREKQGYNYPFNYWGQGTLVTVSS	6.46 nM	4.28e-05 s⁻¹	12900 M⁻¹ s⁻¹	3.93 nM	2.58e+06			

Further lines, with some results ahead:

Kd [3]	koff [3]	kon [3]	EC50 [4]	Maximum (MFI) [4]	EC50 [5]	Maximum (MFI) [5]	Binder	other results
			6.5 nM	2.49e+06			PR005577 (antibody, human IgG1, V domains shown, no light chain; also called anti-PD1 PR002481Com_26 HCAb hIgG1) VH: EVQLVETGGGLIQPGGSLRLSCAASGFNVASYYMSWVRQAPGKGREWVSIIDKAGSGYYADSVKGRFTISRDNSKNRLYLQMNSLRAEDTAMYYCARATEVREKQGYNYPFNYWGQGTLVTVSS	
			4.28 nM	2.71e+06			PR005578 (antibody, human IgG1, V domains shown, no light chain; also called anti-PD1 PR002481Com_27 HCAb hIgG1) VH: EVQLVETGGGLIQPGGSLRLSCAASGFNVASYYMSWVRQAPGKGREWVSIIDKAGSGYYADSVKGRFTISRDNSKNRLYLQMNSLRAEDTAMYYCARATAVREKQGYNYPFNYWGQGTLVTVSS	
					7.31 nM	3.16e+06	PR005581 (antibody, human IgG1, V domains shown, no light chain; also called anti-PD1 PR002481R2M1_A1 HCAb hIgG1) VH: EVQLVETGGGLIQPGGSLRLSCAASGFNVSSFYMSWVRQAPGKGREWVSIIDKAGSTYYGASVKGRFTISRDNSKNRLYLQMNSLRAEDTAMYYCARATEVREKQGYNYPFNYWGQGTLVTVSS	
					8.62 nM	3.3e+06	PR005582 (antibody, human IgG1, V domains shown, no light chain; also called anti-PD1 PR002481Com_28 HCAb hIgG1) VH: EVQLVETGGGLIQPGGSLRLSCAASGFNVASFYMSWVRQAPGKGREWVSIIDKAGSTYYGASVKGRFTISRDNSKNRLYLQMNSLRAEDTAMYYCARATEVREKQGYNYPFNYWGQGTLVTVSS	
1.69 nM	1.65e-05 s⁻¹	8280 M⁻¹ s⁻¹	4.79 nM	2.76e+06			PR005583 (antibody, human IgG1, V domains shown, no light chain; also called anti-PD1 PR002481Com_29 HCAb hIgG1) VH: EVQLVETGGGLIQPGGSLRLSCAASGFNVASFYMSWVRQAPGKGREWVSIIDKAGSTYYADSVKGRFTISRDNSKNRLYLQMNSLRAEDTAMYYCARATEVREKQGYNYPFNYWGQGTLVTVSS	
					4.02 nM	3.02e+06	PR005584 (antibody, human IgG1, V domains shown, no light chain; also called anti-PD1 PR002481Com_30 HCAb hIgG1) VH: EVQLVETGGGLIQPGGSLRLSCAASGFNVSSFYMSWVRQAPGKGREWVSIIDKAGSTYYADSVKGRFTISRDNSKNRLYLQMNSLRAEDTAMYYCARATEVREKQGYNYPFNYWGQGTLVTVSS	
3.08 nM	2.22e-05 s⁻¹	13200 M⁻¹ s⁻¹	7.83 nM	3.11e+06			PR005585 (antibody, human IgG1, V domains shown, no light chain; also called anti-PD1 PR002481Com_35 HCAb hIgG1) VH: EVQLVETGGGLIQPGGSLRLSCAASGFTVSSFYMSWVRQAPGKGREWVSIIDKAGSTYYADSVKGRFTISRDNSKNRLYLQMNSLRAEDTAMYYCARATEVREKQGYNYPFNYWGQGTLVTVSS	
